Experimental data reported in patent publication US20220204613A1 (D 10 THERAPEUTICS, published 2022).

How the values were obtained:
human CD47 protein [1] = target: T1, human CD47 protein (human, UniProt Q08722 19-139, limits assumed); assay: SPR Biacore, supernatant ranking run, human CD47 analyte 5 nM
T1 construct: also called human CD47 antigen

human CD47 protein [2] = target: T1, human CD47 protein; assay: SPR (Biacore) affinity ranking, ligand captured through Fc, human CD47 as analyte, 25 °C, 1:1 Binding model; fit of a flat sensorgram
human CD47 protein [3] = target: T1, human CD47 protein; assay: ELISA on human CD47 protein, antibody 2.29E-03 ug/ml
human CD47 protein [4] = target: T1, human CD47 protein; assay: ELISA on human CD47 protein, antibody 6.17E-02 ug/ml
human CD47 protein [5] = target: T1, human CD47 protein; assay: ELISA on human CD47 protein, antibody 15 ug/ml
human CD47 protein [6] = target: T1, human CD47 protein; assay: ELISA on human CD47 protein, antibody 1.67E+00 ug/ml
human CD47 protein [7] = target: T1, human CD47 protein; assay: ELISA on human CD47 protein, OD450nm against log Ab conc; EC50 row of the table drawn under the plot; fit of the flat control curve
human CD47 protein [8] = target: T1, human CD47 protein; assay: ELISA on human CD47 protein, antibody 2.06E-02 ug/ml
human CD47 protein [9] = target: T1, human CD47 protein; assay: ELISA on human CD47 protein, antibody 5.00E+00 ug/ml
human CD47 protein [10] = target: T1, human CD47 protein; assay: ELISA on human CD47 protein, antibody 5.56E-01 ug/ml
human CD47 protein [11] = target: T1, human CD47 protein; assay: ELISA on human CD47 protein, antibody 1.85E-01 ug/ml
human CD47 protein [12] = target: T1, human CD47 protein; assay: ELISA on human CD47 protein, antibody 45 ug/ml
human CD47 protein [13] = target: T1, human CD47 protein; assay: ELISA on human CD47 protein, antibody 7.62E-04 ug/ml
human CD47 protein [14] = target: T1, human CD47 protein; assay: ELISA on human CD47 protein, antibody 6.86E-03 ug/ml
human CD47 protein [15] = target: T1, human CD47 protein; assay: SPR Biacore, purified IgG Fc-captured, human CD47 analyte 0.3125-10 nM
Text: Affinity measurement of purified humanized IgGs. The affinity of purified antibody binding to human CD47 was individually determined using a Surface Plasmon Resonance (SPR) biosensor, Biacore® T200/8K (GE Healthcare). Antibodies were captured on the sensor chip through Fc capture method. Human CD47 protein was used as the analyte. The data of dissociation (kd) and association (ka) rate constants were obtained using Biacore T200/8K evaluation software. The equilibrium dissociation constants (KD) were calculated from the ratio of kd over ka.

[16] = target: T2, extracellular domain of human CD47 (human, UniProt Q08722 19-139); assay: hybridoma screening ELISA on the immunogen
T2 construct: also called immunogen
Description: Balb/c mice (4-6 mice per group) were immunized with the extracellular domain of human CD47 and immune adjuvant. Immune boosts were performed 3-5 times. Serum collection and titer evaluation by ELISA against target immunogen were performed. Spleens were extracted surgically from the highest titer mouse or mice. Mouse spleen cells were fused with rat myeloma cells facilitated by PEG. Fused cells were seeded into 96-well plates in the presence of HAT Fusion medium. Three consecutive rounds of clone testing were performed by ELISA using the immunogen for positive screening to identify and validate the positive hybridoma clones. Hybridoma cell lines producing the most suitable antibodies were subcloned and expanded for monoclonal antibody production and cell storage.

human CD47 protein [17] = target: T1, human CD47 protein; assay: ELISA on human CD47 protein, antibody 0 ug/ml (blank)
human CD47 protein [18] = target: T1, human CD47 protein; assay: SPR Biacore, supernatant antibody Fc-captured, human CD47 analyte 5 nM
Description: Production and affinity ranking of humanized antibodies. The designed plasmids of heavy chain and light chain were sent for 3 mL transfection following GenScript's SOP. For affinity ranking, Antibodies were captured on the sensor chip through Fc capture method. Human CD47 protein was used as the analyte. The surface was regenerated before the injection of another antibody. The process was repeated until all antibodies were analyzed. The off-rates of antibodies were obtained from fitting the experimental data locally to 1:1 interaction model using the Biacore® T200/8K evaluation software. The antibodies were ranked by their dissociation rate constants (off-rates, kd).

human CD47 protein [19] = target: T1, human CD47 protein; assay: ELISA on human CD47 protein, OD450nm against log Ab conc; EC50 row of the table drawn under the plot; the curve has no lower plateau in the range shown

T2 sequence (Q08722 19-139 limits assumed): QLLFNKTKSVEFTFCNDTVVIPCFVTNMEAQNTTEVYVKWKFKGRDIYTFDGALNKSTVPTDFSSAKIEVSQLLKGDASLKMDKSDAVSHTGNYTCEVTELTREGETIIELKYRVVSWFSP
T1 sequence (Q08722 19-139 limits assumed): as above

Row | ELISA signal (human CD47 protein [3]) | ELISA signal (human CD47 protein [4]) | ELISA signal (human CD47 protein [5]) | ELISA signal (human CD47 protein [6]) | ELISA signal (human CD47 protein [8]) | ELISA signal (human CD47 protein [9]) | ELISA signal (human CD47 protein [10]) | ELISA signal (human CD47 protein [11]) | ELISA signal (human CD47 protein [12]) | ELISA signal (human CD47 protein [13]) | ELISA signal (human CD47 protein [14]) | Kd (human CD47 protein [15]) [nM] | koff (human CD47 protein [15]) [s⁻¹] | kon (human CD47 protein [15]) [M⁻¹ s⁻¹] | binding result [16] | Molecule | other results
1 |  |  |  |  |  |  |  |  |  |  |  |  |  |  |  | NC | Kd (human CD47 protein [1]): 387 nM; koff (human CD47 protein [1]): 0.0179 s⁻¹; kon (human CD47 protein [1]): 46300 M⁻¹ s⁻¹; Kd (human CD47 protein [2]): 387 nM; koff (human CD47 protein [2]): 0.0179 s⁻¹; kon (human CD47 protein [2]): 46300 M⁻¹ s⁻¹
2 | 0.287 | 0.445 | 0.49 | 0.454 | 0.48 | 0.562 | 0.553 | 0.551 | 0.543 | 0.211 | 0.387 |  |  |  |  | Isotype control (antibody) | EC50 (human CD47 protein [7]): 3.42 ng/mL
3 |  |  |  |  |  |  |  |  |  |  |  | 0.872 | 0.0023 | 2.64e+06 |  | VH1-PTM+VL1 (antibody, human IgG4 S228P, kappa, V domains shown, Purified humanized IgG with PTM sites removed, hIgG4 CH (S228P) and human kappa CL; leader residues 1-19 of each entry left out; also called U0959FD090-VH1-PTM + U0959FD090-VL1) VH: QVQLVQSGAEVKKPGASVKVSCKASGYTFTSSVIHWVRQAPGQGLEWMGYINPYSEGTKFNEKSKIRVTMTRDTSISTAYMELSRLRSDDTAVYYCARGLIGTRYDSWFAYWGQGTLVTVSS VL: DIQMTQSPSSLSASVGDRVTITCRTSQDINNYLNWYQQKPGKAPKLLIYYTSRLHSGVPSRFSGSGSGTDFTFTISSLQPEDIATYYCQQGNTLPYTFGGGTKVEIKR | 
4 |  |  |  |  |  |  |  |  |  |  |  | 0.458 | 0.0016 | 3.49e+06 |  | VH1-PTM+VL3 (antibody, human IgG4 S228P, kappa, V domains shown, Purified humanized IgG with PTM sites removed, hIgG4 CH (S228P) and human kappa CL; leader residues 1-19 of each entry left out; also called U0959FD090-VH1-PTM + U0959FD090-VL3) VH: QVQLVQSGAEVKKPGASVKVSCKASGYTFTSSVIHWVRQAPGQGLEWMGYINPYSEGTKFNEKSKIRVTMTRDTSISTAYMELSRLRSDDTAVYYCARGLIGTRYDSWFAYWGQGTLVTVSS VL: DIQMTQSPSSLSASVGDRVTITCRTSQDINNYLNWYQQKPGKAVKLLIYYTSRLHSGVPSRFSGSGSGTDYTFTISSLQPEDIATYFCQQGNTLPYTFGGGTKVEIKR | 
5 |  |  |  |  |  |  |  |  |  |  |  | 0.556 | 0.00193 | 3.46e+06 |  | VH1-PTM+VL2 (antibody, human IgG4 S228P, kappa, V domains shown, Purified humanized IgG with PTM sites removed, hIgG4 CH (S228P) and human kappa CL; leader residues 1-19 of each entry left out; also called U0959FD090-VH1-PTM + U0959FD090-VL2) VH: QVQLVQSGAEVKKPGASVKVSCKASGYTFTSSVIHWVRQAPGQGLEWMGYINPYSEGTKFNEKSKIRVTMTRDTSISTAYMELSRLRSDDTAVYYCARGLIGTRYDSWFAYWGQGTLVTVSS VL: DIQMTQSPSSLSASVGDRVTITCRTSQDINNYLNWYQQKPGKAVKLLIYYTSRLHSGVPSRFSGSGSGTDFTFTISSLQPEDIATYFCQQGNTLPYTFGGGTKVEIKR | 
6 |  |  |  |  |  |  |  |  |  |  |  |  |  |  | binds | 37H4H3 (antibody, V domains shown, Mouse hybridoma antibody; also called antibody 37H4H3) VH: EVQLQQSGPELVKPGASVKLSCKASGYTFTSSVMHWVKQKPGQGLEWLGYINPYSDGTKFNEKYKTKATLTSDKSSSTAYMELSSLTSEDSAVYYCARGLIGTRYDSWFAYWGQGTLVTVSA VL: DIQMTQNASSLSASLGDRVTISCRTSQDINNYLNWYQQKPDGTVKLLIYYTSRLHSGVPSRFSGSGSGTDYSLSIRYLEQEDIATYFCHQGNTLPYTFGGGTKLEIK | 
7 |  |  |  |  |  |  |  |  |  |  |  |  |  |  | binds | 38F1E12 (antibody, V domains shown, Mouse hybridoma antibody; also called antibody 38F1E12) VH: EVQLQQSGPELVQPGASVRMSCKASGYTFTSYVMHWVKQKPGQGLEWIGYINPYNDGTKYNEKFKGKATLTSDKSSSTAYMELSSLTSEDSAVYYCARGRNRYDGWFTYWGQGTLVTVSA VL: DIQMTQTTFSLSASLGDRVTISCRASQDISNYLNWYQQKPDGTVKLLIYYTSRLHSGVPSRFSGSGSGTDYSLTISNLEQEDIATYFCQQGNTLPYTFGGGTKLEIK | 
8 | 0.276 | 0.435 | 1.39 | 0.663 | 0.342 | 0.918 | 0.56 | 0.475 | 1.95 | 0.255 | 0.44 |  |  |  |  | chimeric-VH+VL2 (antibody, human IgG4, V domains shown) VH: EVQLQQSGPELVKPGASVKLSCKASGYTFTSSVIHWVKQKPGQGLEWLGYINPYSDGTKFNEKCKIKATLTSDKSSSTAYMELSSLTSEDSAVYYCARGLIGTRYDSWFAYWGQGTLVTVSA VL: DIQMNQSPSSLSASLGDTITITCHASQNINVWLSWYQQKPGNIPKLLIYKASNLHTGVPSRFSGSGSGTGFTLTISSLQPEDIATYYCQQGQSYPLTFGAGTKLELK | ELISA signal (human CD47 protein [17]): 0.251
9 |  |  |  |  |  |  |  |  |  |  |  |  |  |  | binds | 33H11F3 (antibody, V domains shown, Mouse hybridoma antibody; also called antibody 33H11F3) VH: EVQLQQSGPELVKPGASVKMSCKASGYTFTSYVMHWVKQKPGQGLEWMGYINPYNDGTKYNEKFKGKATLTSDKSSNTAYMEFSSLTSEDSAVYYCARIDYGTIHTSWFAYWGQGTLVTVSA VL: DIQMTHTTSSLSASLGDRVTISCRASQDISNYLNWYQQKPDGTVKLLIYYTSRLHSGVPSRFSGSGSGTDYSLTISNLEQEDIATYFCQQGNTLPWTFGGGTKLEIK | 
10 | 2.4 | 3.19 | 3.39 | 3.32 | 2.9 | 3.48 | 3.32 | 3.34 | 3.48 | 1.71 | 2.64 | 0.482 | 0.00255 | 5.3e+06 |  | chimeric-VH+VL-1 (antibody, human IgG4, V domains shown, also called chimeric antibody) VH: EVQLQQSGPELVKPGASVKLSCKASGYTFTSSVIHWVKQKPGQGLEWLGYINPYSDGTKFNEKCKIKATLTSDKSSSTAYMELSSLTSEDSAVYYCARGLIGTRYDSWFAYWGQGTLVTVSA VL: DIQMTQNGSSLSASLGDRVTISCRTSQDINNYLNWYQQKQDGTVKLLIYYTSRLHSGVPSRFSGSGSGTDYSLTIRNLEQEDIATYFCQQGNTLPYTFGGGTKLEIK | Kd (human CD47 protein [18]): 0.34 nM; koff (human CD47 protein [18]): 0.00261 s⁻¹; kon (human CD47 protein [18]): 7.69e+06 M⁻¹ s⁻¹; ELISA signal (human CD47 protein [17]): 0.162
11 | 2.68 | 3.73 | 3.87 | 3.71 | 3.33 | 3.78 | 3.8 | 3.81 | 3.83 | 2.32 | 2.98 |  |  |  |  | 32G8H6 (antibody, V domains shown, Mouse hybridoma antibody; also called parent mAb (32G8H6); 32G8H6 (mAb)) VH: EVQLQQSGPELVKPGASVKLSCKASGYTFTSSVIHWVKQKPGQGLEWLGYINPYSDGTKFNEKCKIKATLTSDKSSSTAYMELSSLTSEDSAVYYCARGLIGTRYDSWFAYWGQGTLVTVSA VL: DIQMTQNGSSLSASLGDRVTISCRTSQDINNYLNWYQQKQDGTVKLLIYYTSRLHSGVPSRFSGSGSGTDYSLTIRNLEQEDIATYFCQQGNTLPYTFGGGTKLEIK | EC50 (human CD47 protein [19]): 6.55 ng/mL; ELISA signal (human CD47 protein [17]): 0.086
12 |  |  |  |  |  |  |  |  |  |  |  |  |  |  | binds | 41B1H9 (antibody, V domains shown, Mouse hybridoma antibody; also called antibody 41B1H9) VH: EVQLQQSGTELVKPGASVRLSCTASGLDIKDTYMHWLKQRPEQGLEWIGRIDPASGNAKHDPKFQGKATITSDPSSNTANLQLTSLTSEDSAVYYCASGYGHYVGAMDYWGQGTSVTVSS VL: DIQMNQSPSSLSASLGDTITITCHASQNINVWLSWYQQKPGNIPKLLIYKASNLHTGVPSRFSGSGSGTGFTLTISSLQPEDIATYYCQQSRNYPYTFGGGTKLEIK | 
